Experimental data as given in US20250270343A1 (Alector, published 2025).

Assays:
[1] = target: T1, mouse GPNMB endogenously expressed on B16F10 cells (mouse, UniProt Q99P91 23-574); test: FACS, B16F10 cells
T1 construct: whole, on cells; also called moGPNMB
T1 sequence (looked up): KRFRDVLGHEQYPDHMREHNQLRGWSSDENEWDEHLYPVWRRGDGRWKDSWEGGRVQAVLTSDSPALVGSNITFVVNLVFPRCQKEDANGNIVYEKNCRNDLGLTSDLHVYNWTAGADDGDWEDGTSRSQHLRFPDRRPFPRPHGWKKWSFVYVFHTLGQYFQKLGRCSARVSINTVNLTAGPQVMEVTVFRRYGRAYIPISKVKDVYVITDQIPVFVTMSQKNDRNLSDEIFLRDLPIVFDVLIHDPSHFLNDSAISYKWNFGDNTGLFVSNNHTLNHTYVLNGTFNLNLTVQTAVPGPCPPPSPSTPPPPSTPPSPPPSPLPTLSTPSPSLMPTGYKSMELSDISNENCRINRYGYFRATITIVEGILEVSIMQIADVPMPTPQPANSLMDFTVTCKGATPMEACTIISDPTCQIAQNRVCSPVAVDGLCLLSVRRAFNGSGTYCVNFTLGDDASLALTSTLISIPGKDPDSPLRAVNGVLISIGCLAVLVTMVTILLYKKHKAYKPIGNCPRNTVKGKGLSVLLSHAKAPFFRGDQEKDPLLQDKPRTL
Description: Recombinant anti-GPNMB antibodies of the present disclosure were examined for their ability to bind human and/or mouse GPNMB expressed on Freestyle293-huGPNMB+ or B16F10 cells, respectively. B16F10 cells are a murine melanoma cell line from a C57BL/6J mouse that endogenously express high levels of mouse GPNMB. The antibodies were also tested for their ability to bind to a human macrophage cell line (U937 cells) engineered to express human GPNMB. Cells were harvested, plated at 100,000 cells/well in a 96-well round bottom plate, and incubated in 100 μl FACS buffer (PBS containing 2% FBS, 2 mM EDTA) containing anti-GPNMB monoclonal antibodies of the present disclosure for 30 minutes on ice. Cells were then washed and incubated in 100 ul FACS buffer containing 1 μg/ml APC-conjugated anti-human IgG secondary antibody for 30 minutes in ice. Cells were washed twice in cold FACS buffer and acquired on a BD FACS Canto. Data analysis and calculation of MFI values was performed with FlowJo (TreeStar) software version 10.0.7. […]

[2] = target: T2, soluble mouse GPNMB-Fc polypeptide (mouse IgG2A Fc) (mouse, UniProt Q99P91 23-502); test: FACS, enhancing of moGPNMB-Fc binding to SVEC4-10 cells
T2 construct: extracellular domain; bought (R&D System); also called moGPNMB-Fc; mGPNMB-Fc; not shown: Fc region of mouse IgG2A
T2 sequence (looked up): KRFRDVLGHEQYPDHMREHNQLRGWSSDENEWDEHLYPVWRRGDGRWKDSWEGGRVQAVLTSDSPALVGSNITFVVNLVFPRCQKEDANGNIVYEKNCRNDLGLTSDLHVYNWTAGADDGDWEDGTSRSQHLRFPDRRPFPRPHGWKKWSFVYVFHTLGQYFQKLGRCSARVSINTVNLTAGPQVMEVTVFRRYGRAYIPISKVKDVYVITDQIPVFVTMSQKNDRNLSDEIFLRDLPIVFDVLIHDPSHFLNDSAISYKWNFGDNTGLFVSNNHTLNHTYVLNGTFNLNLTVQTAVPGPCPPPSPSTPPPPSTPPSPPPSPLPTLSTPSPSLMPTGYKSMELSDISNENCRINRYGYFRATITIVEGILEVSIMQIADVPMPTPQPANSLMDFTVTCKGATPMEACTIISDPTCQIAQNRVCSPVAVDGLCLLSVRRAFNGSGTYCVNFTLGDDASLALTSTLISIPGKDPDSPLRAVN
Description: Purified full-length anti-GPNMB antibodies of the present disclosure were evaluated for their ability to block binding of moGPNMB-Fc to SVEC4-10 cells to determine the ligand blocking potency of each anti-GPNMB monoclonal antibody. Briefly, 2 μg/mL moGPNMB-Fc (mouse IgG2A Fc) diluted in binding buffer was pre-complexed with increasing concentrations of anti-GPNMB antibody of the present disclosure or human IgG1 isotype control antibody in 96-well plates. Subsequently, 100,000 SVEC4-10 cells were added per well and incubated on ice for 30 minutes. Soluble moGPNMB-Fc bound to cell surface was detected with fluorescent anti-mouse IgG2A secondary antibody and measured on FACSCanto. (FIG. 5A and FIG. 5B) IC50 values (for antibodies that block moGPNMB-Fc cell binding) and EC50 values (for antibodies that enhance moGPNMB-Fc cell binding) based on changes in MFI values were calculated (average+standard error) for each anti-GPNMB antibody and listed in Table 6. In Table 6, NA indicates no activity. […] In all cases, certain anti-GPNMB antibodies of the present disclosure blocked soluble GPNMB binding to cells, while other anti-GPNMB antibodies of the present disclosure enhanced soluble GPNMB binding to cells.

[3] = target: T1, mouse GPNMB endogenously expressed on …; test: FACS titration, B16F10 cells
Description: Cell-based binding measurements were also performed to measure the apparent affinities of anti-GPNMB antibodies of the present disclosure to cell-surface expressed GPNMB. Serial dilutions of the monoclonal anti-GPNMB antibodies were added to 100,000 Freestyle293-huGPNMB+ or B16F10 cells and allowed to achieve binding equilibrium at 4° C. After addition of fluorescently labeled secondary antibody and brief washing steps, MFI values as a function of titrated antibody concentration was recorded via FACS analysis. Curves were fit using nonlinear regression analysis with Graphpad Prism 6 software.

[4] = target: T3, soluble mouse GPNMB (recombinant extracellular domain) (mouse, UniProt Q99P91 23-502); test: SPR Carterra, Ab immobilized
T3 construct: also called moGPNMB; not shown: C-terminal polyhistidine or Avi-His tag
T3 sequence: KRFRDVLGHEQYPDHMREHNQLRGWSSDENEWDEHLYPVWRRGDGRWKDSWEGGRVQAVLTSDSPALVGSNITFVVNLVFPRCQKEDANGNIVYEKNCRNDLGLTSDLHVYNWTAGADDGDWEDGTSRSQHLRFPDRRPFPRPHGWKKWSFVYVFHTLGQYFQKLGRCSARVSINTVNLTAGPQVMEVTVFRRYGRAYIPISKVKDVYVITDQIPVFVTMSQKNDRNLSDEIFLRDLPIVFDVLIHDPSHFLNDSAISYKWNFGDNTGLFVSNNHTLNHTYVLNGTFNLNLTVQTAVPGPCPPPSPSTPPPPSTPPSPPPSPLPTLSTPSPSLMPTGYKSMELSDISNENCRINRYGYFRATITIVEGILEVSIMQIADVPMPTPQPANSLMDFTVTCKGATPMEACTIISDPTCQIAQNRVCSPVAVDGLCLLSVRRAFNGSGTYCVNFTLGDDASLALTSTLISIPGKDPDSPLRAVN
Description: Binding kinetics of human anti-GPNMB IgG1 antibodies of the present disclosure to human, cynomolgus, and mouse GPNMB were evaluated using a Carterra LSA instrument (Carterra, Salt Lake City, UT). […] A HC200M sensor chip (Carterra) was activated using the single channel flow cell with a 7-minute injection of a 1:1:1 mixture of 100 mM MES pH 5.5, 100 mM sulfo-NHS, 400 mM EDC (all reconstituted in MES pH 5.5; 100 μl of each mixed in vial immediately before running assay). After switching to the multi-channel array flow cell, the antibodies were injected over the activated chip in a 96-spot array for 15 minutes. The remaining unconjugated active groups on the chip were then blocked by injecting 1M Ethanolamine pH 8.5 (Carterra) for 7 minutes using the single channel flow cell.
After priming with running buffer (HBS-EP+, Teknova) with 0.5 mg/ml BSA (Sigma), the immobilized anti-GPNMB antibodies were tested for their ability to bind to several forms of recombinant GPNMB extracellular domain, including human, cynomolgus, and mouse orthologs as described above. Estimates of affinity were generated by injecting each analyte over the entire antibody array using the single channel flow cell. GPNMB analytes were diluted to 2.5, 7.4, 22, 67, 200, and 600 nM in running buffer, and injected in serial from lowest to highest concentration without regeneration. Two buffer blanks were run between each series (one species per series). Data were processed and analyzed using Kinetics high-throughput kinetics analysis software (Carterra).

MFI fold over background [1]: 20.9 fold
EC50 [2]: 0.79 nM
EC50 [3]: 17.8 nM
Kd [4]: < 0.3 nM
koff [4]: < 1e-05 s⁻¹
kon [4]: 40000 M⁻¹ s⁻¹
B1: anti-GPNMB antibody GPN-33 (antibody, human IgG1, V domains shown)
VH: EVQLVESGGSLVQPGGSLKLSCVASGYTFSNYWMDWVRQTPGKSLEWIGEINTDGSKTNYAPSIKDRFTISRDNAKSTLYLQMSNVKADDTAIYYCTRGPGAWGQGTSVTVSS
VL: DIVMTQTPLSLSVAIGQSASISCKSSQSLKFSDGKTYLNWVFQSPGQSPKRLIYQVSKLDSGVPDRFSGTGSETDFILKISRVEAEDLGVYYCCQGSYSPWTIGGGTKLELK
notes: chimeric
